This note sets out measurements from patent publication US20100273160A1.

In the test the target is T1, MIS type II receptor (MISRII) on mouse ovarian cancer cell lines MOVCAR 7 and 4306 (mouse) (UniProt Q8K592).
T1 sequence (looked up): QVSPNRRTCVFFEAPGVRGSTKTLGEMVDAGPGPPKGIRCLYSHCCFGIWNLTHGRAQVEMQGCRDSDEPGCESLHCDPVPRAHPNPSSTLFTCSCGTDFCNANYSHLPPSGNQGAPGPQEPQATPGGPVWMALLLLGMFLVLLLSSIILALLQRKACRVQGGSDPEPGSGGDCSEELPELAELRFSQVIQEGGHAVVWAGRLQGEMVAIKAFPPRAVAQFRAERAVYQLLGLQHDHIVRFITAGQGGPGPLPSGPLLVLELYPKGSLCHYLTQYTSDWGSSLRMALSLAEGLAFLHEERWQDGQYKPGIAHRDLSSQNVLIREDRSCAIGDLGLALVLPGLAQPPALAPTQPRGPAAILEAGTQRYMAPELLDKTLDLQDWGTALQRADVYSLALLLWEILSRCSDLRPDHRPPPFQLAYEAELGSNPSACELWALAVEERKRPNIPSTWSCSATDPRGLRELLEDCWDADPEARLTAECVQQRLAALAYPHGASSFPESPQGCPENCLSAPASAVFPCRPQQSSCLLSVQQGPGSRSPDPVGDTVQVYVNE
Description: cell-based or functional assay.

B1: recombinant human Mullerian Inhibiting Substance (MIS) (ligand)
chain: LRAEEPAVGTSGLIFREDLDWPPGSPQEPLCLVALGGDSNGSSSPLRVVGALSAYEQAFLGAVQRARWGPRDLATFGVCNTGDRQAALPSLRRLGAWLRDPGGQRLVVLHLEEVTWEPTPSLRFQEPPPGGAGPPELALLVLYPGPGPEVTVTRAGLPGAQSLCPSRDTRYLVLAVDRPAGAWRGSGLALTLQPRGEDSRLSTARLQALLFGDDHRCFTRMTPALLLLPRSEPAPLPAHGQLDTVPFPPPRPSAELEESPPSADPFLETLTRLVRALRVPPARASAPRLALDPDALAGFPQGLVNLSDPAALERLLDGEEPLLLLLRPTAATTGDPAPLHDPTSAPWATALARRVAAELQAAAAELRSLPGLPPATAPLLARLLALCPGGPGGLGDPLRALLLLKALQGLRVEWRGRDPRGPGRAQRSAGATAADGPCALRELSVDLRAERSVLIPETYQANNCQGVCGWPQSDRNPRYGNHVVLLLKMQARGAALARPPCCVPTAYAGKLLISLSEERISAHHVPNMVATECGCR
B1: the MTT proliferation assay, 4306 SP cells after first sort, 10 µg/ml MIS, inhibition versus vehicle came to 37%; the MTT proliferation assay, 4306 SP cells after sort 2, MIS, inhibition came out at 60%; the MTT proliferation assay, 4306 SP cells after sort 3, MIS, inhibition (not significant) came out at 17%; the MTT proliferation assay, MOVCAR 7 NSP cells after first sort, 10 µg/ml MIS, inhibition versus vehicle was found to be 93%. Besides, the MTT proliferation assay, MOVCAR 7 SP cells after first sort, 10 µg/ml MIS, inhibition versus vehicle was 86%; the MTT proliferation assay, MOVCAR 7 SP cells after sort 2, MIS, inhibition turned out to be 93%; the MTT proliferation assay, MOVCAR 7 SP cells after sort 3, MIS, inhibition was 94%.
